Results on three molecules are retold here after US20060030020A1.

Assay [1] addresses mouse monoclonal anti-β-gal antibody (Promega, Madison, Wis.). The assay can be described thus: single round of affinity selection on wells coated with anti-β-gal antibodies.
Assay [2] shares this target. Kind of assay: affinity selection on wells coated with anti-β-gal antibody; input λβ-gal/λV′sac 10^3/10^6.
Assay [3] has the same target. The assay can be described thus: affinity selection on wells coated with anti-β-gal antibody; input λβ-gal/λV′sac 10^3/10^7.
The target is the same in assay [4]. The assay can be described thus: affinity selection on wells coated with anti-β-gal antibody; input λβ-gal/λV′sac 10^3/10^8.
The target is the same in assay [5]. The assay can be described thus: affinity selection on wells coated with anti-β-gal antibody; input λβ-gal/λV′sac 10^3/10^9.
For assay [6] the target is unchanged. Kind of assay: affinity selection on wells coated with anti-β-gal antibody; input λβ-gal/λV′sac 10^4/10^7.
The target is the same in assay [7]. Kind of assay: affinity selection on wells coated with anti-β-gal antibody; input λβ-gal/λV′sac 10^4/10^8.
Assay [8] shares this target. Kind of assay: affinity selection on wells coated with anti-β-gal antibody; input λβ-gal/λV′sac 10^4/10^9.
The target is the same in assay [9]. The assay can be described thus: affinity selection on wells coated with anti-β-gal antibody; input λβ-gal/λV′sac 10^3/10^10.
Assay [10] shares this target. Kind of assay: affinity selection on wells coated with anti-β-gal antibody; input λβ-gal/λV′sac 10^4/10^10.
The target is the same in assay [11]. Kind of assay: affinity selection on wells coated with anti-β-gal antibody, collagenase elution, plaques counted on X-gal; input λβ-gal/λV′sac 10^3/10^6.
The target is the same in assay [12]. The assay can be described thus: affinity selection on wells coated with anti-β-gal antibody, collagenase elution, plaques counted on X-gal; input λβ-gal/λV′sac 10^3/10^7.
Assay [13] shares this target. Kind of assay: affinity selection on wells coated with anti-β-gal antibody, collagenase elution, plaques counted on X-gal; input λβ-gal/λV′sac 10^3/10^8.
The target is the same in assay [14]. The assay can be described thus: affinity selection on wells coated with anti-β-gal antibody, collagenase elution, plaques counted on X-gal; input λβ-gal/λV′sac 10^3/10^9.
Assay [15] has the same target. The assay can be described thus: affinity selection on wells coated with anti-β-gal antibody, collagenase elution, plaques counted on X-gal; input λβ-gal/λV′sac 10^4/10^7.
For assay [16] the target is unchanged. The assay can be described thus: affinity selection on wells coated with anti-β-gal antibody, collagenase elution, plaques counted on X-gal; input λβ-gal/λV′sac 10^4/10^8.
The target is the same in assay [17]. Kind of assay: affinity selection on wells coated with anti-β-gal antibody, collagenase elution, plaques counted on X-gal; input λβ-gal/λV′sac 10^4/10^9.
For assay [18] the target is unchanged. The assay can be described thus: affinity selection on wells coated with anti-β-gal antibody, collagenase elution, plaques counted on X-gal; input λβ-gal/λV′sac 10^3/10^10.
Assay [19] has the same target. Kind of assay: affinity selection on wells coated with anti-β-gal antibody, collagenase elution, plaques counted on X-gal; input λβ-gal/λV′sac 10^4/10^10.
In assay [20] the target is mucin of bovine submaxillary glands (Sigma, St. Louis, Mo.) (bovine). The assay can be described thus: affinity selection on wells coated with mucin, 1 mM CaCl2, collagenase elution.

A value given as a limit tells only on which side of the number the result lay.

Regarding “λβ-gal phage particles grown on MC8 (su+), displaying the β-gal multimer (pV′-β-gal fusion protein assembled with β-gal monomers) on the phage tail (from UniProt P00722 10-1024)”, the average efficiency of recovery (% of the input phage) in [1] came out at 1. Also, the Enrichment (fold over λV′sac) in assay [2] is over 8000; in [3], 2000; in assay [4], 80000; in assay [5] it was 280000; in assay [6], 16000; in assay [7] it was 170000. In addition, the values for the Enrichment (fold over λV′sac) in [8], in assay [9] and in assay [10] were 300000, 530000 and 770000, respectively. The Output Phage in [11] came out at 8 plaques; in [12], 10 plaques; in assay [13], 8 plaques; in [14], 99 plaques; in assay [15] it was 96 plaques; in assay [16], 168 plaques. In addition, the Output Phage in assay [17] was 108 plaques; in [18], 5 plaques; in assay [19] it was 129 plaques.

B1: λBPA phage particles grown on MC8 (su+), displaying the BPA (Bauhinia purpurea lectin) multimer (pV′-BPA fusion protein assembled with BPA monomers) (protein, part only; not given: amber residue and junction residues, part only)
chain, part: MPVPNPTMPVKGAGTTLWVYKGSGDPYANPLSDVDWSRLAKVKDLTPGELTAESYDDSYLDDEDADWTATGQGQKSAGDTSFTLAWMPGEQGQQALLAWFNEGDTRAYKIRFPNGTVDVFRGWVSSIGKAVTAKEVITRTVKVTNVGRPSMAEDRSTVTAATGMTVTPASTSVVKGSWPVRPTPTPTTPTPTPTPTPTPTPTVGPIVTQETATSSTLTGFTFPNFWSNTQENGTEIIFLGNATYTPGALRLTRIGEDGIPLKSNAGQASYSRPVFLWDSTGHVASFYTSFSFIVRSIDVPHITADGFAFFLAPVDSSVKDYGGCLGLFRYKTATDPSKNQVVAVEFDTWPNTEWSDLRYPHIGINVNSTVSVATTRWDNDDAYVTKSTAHITYDATSKIITVLLTYDNGRHYQLSHVVDLPKILPERVRIGFSGGTGFNETQYILSWSFTSTLNSTKISALTQKLRSSASYSSM
chain: TSSTLTGFTFPNFWSNTQENGTEIIFLGNATYTPGALRLTRIGEDGIPLKSNAGQASYSRPVFLWDSTGHVASFYTSFSFIVRSIDVPHITADGFAFFLAPVDSSVKDYGGCLGLFRYKTATDPSKNQVVAVEFDTWPNTEWSDLRYPHIGINVNSTVSVATTRWDNDDAYVTKSTAHITYDATSKIITVLLTYDNGRHYQLSHVVDLPKILPERVRIGFSGGTGFNETQYILSWSFTSTLNSTKISALTQKLRSSASYSSM
In assay [20], B1 registered a recovery of input phage (% of input phage) of 0.01.

B2: λV′sac phage particles grown on MC8 (su+), reference phage (protein)
chain: MPVPNPTMPVKGAGTTLWVYKGSGDPYANPLSDVDWSRLAKVKDLTPGELTAESYDDSYLDDEDADWTATGQGQKSAGDTSFTLAWMPGEQGQQALLAWFNEGDTRAYKIRFPNGTVDVFRGWVSSIGKAVTAKEVITRTVKVTNVGRPSMAEDRSTVTAATGMTVTPASTSVVKG
For the molecule B2, the Output Phage in assay [11] amounted to 0 plaques; in assay [12] it was 5 plaques; in [13], 11 plaques; in [14] it was 32 plaques; in assay [15], 6 plaques; in assay [16], 25 plaques. Further, the Output Phage in assay [17] worked out at 39 plaques; in assay [18] it was 106 plaques; in [19], 162 plaques.
